Test results from US20170016915A1, “SCREENING TARGETS AND COMPOSITIONS AND METHODS FOR TREATMENT OF CILIOPATHY DISORDERS” (Duke University, priority 2014, published 2017).
Where a SMILES comes first, the peptide text is derived from it. The star is where a group is joined. Cbz = O=C(OCc1ccccc1)*

T1: BBS10 (UniProt Q8TAM1 1-723, limits assumed)
T1 construct: Tested in the same co-IP series as the Myc- or HA-tagged BBS proteins
T1 sequence (looked up): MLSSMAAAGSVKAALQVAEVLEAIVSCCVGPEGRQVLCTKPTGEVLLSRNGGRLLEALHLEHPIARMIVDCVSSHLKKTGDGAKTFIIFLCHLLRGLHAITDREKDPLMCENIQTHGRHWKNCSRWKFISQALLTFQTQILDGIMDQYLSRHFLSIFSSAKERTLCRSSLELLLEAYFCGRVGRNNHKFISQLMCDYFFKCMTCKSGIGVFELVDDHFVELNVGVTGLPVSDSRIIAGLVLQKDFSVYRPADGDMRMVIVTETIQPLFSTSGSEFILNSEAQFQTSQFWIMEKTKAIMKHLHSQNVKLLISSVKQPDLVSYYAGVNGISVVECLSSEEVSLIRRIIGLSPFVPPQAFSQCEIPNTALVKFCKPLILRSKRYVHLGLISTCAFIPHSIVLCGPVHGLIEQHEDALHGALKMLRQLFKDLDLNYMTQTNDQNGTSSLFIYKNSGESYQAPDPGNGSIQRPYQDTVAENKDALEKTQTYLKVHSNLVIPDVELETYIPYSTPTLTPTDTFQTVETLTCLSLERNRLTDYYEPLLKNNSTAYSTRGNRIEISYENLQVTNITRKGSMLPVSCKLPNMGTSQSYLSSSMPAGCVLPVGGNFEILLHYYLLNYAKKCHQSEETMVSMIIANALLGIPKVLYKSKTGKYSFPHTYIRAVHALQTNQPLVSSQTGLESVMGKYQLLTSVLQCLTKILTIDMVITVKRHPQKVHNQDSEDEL

B1: GFP-tagged PSMB1 (proteasome subunit beta type 1, subunit in the 20S particle) (other, UniProt P20618 1-241, looked up)
chain: MLSSTAMYSAPGRDLGMEPHRAAGPLQLRFSPYVFNGGTILAIAGEDFAIVASDTRLSEGFSIHTRDSPKCYKLTDKTVIGCSGFHGDCLTLTKIIEARLKMYKHSNNKAMTTGAIAAMLSTILYSRRFFPYYVYNIIGGLDEEGKGAVYSFDPVGSYQRDSFKAGGSASAMLQPLLDNQVGFKNMQNVEHVPLSLDRAMRLVKDVFISAAERDVYTGDALRICIVTKEGIREETVSLRKD
notes: Transfected construct; not shown: GFP tag
B2: BBS5 (other, UniProt Q8N3I7 1-341, looked up)
chain: MSVLDALWEDRDVRFDLSAQQMKTRPGEVLIDCLDSIEDTKGNNGDRGRLLVTNLRILWHSLALSRVNVSVGYNCILNITTRTANSKLRGQTEALYILTKCNSTRFEFIFTNLVPGSPRLFTSVMAVHRAYETSKMYRDFKLRSALIQNKQLRLLPQEHVYDKINGVWNLSSDQGNLGTFFITNVRIVWHANMNDSFNVSIPYLQIRSIKIRDSKFGLALVIESSQQSGGYVLGFKIDPVEKLQESVKEINSLHKVYSASPIFGVDYEMEEKPQPLEALTVEQIQDDVEIDSDGHTDAFVAYFADGNKQQDREPVFSEELGLAIEKLKDGFTLQGLWEVMS
notes: Tested in the same co-IP series as the Myc- or HA-tagged BBS proteins
B3: GFP-tagged regulatory proteasome non-ATPase subunit 10 (RPN10) (other, UniProt P55036 1-377, looked up)
chain: MVLESTMVCVDNSEYMRNGDFLPTRLQAQQDAVNIVCHSKTRSNPENNVGLITLANDCEVLTTLTPDTGRILSKLHTVQPKGKITFCTGIRVAHLALKHRQGKNHKMRIIAFVGSPVEDNEKDLVKLAKRLKKEKVNVDIINFGEEEVNTEKLTAFVNTLNGKDGTGSHLVTVPPGPSLADALISSPILAGEGGAMLGLGASDFEFGVDPSADPELALALRVSMEEQRQRQEEEARRAAAASAAEAGIATTGTEDSDDALLKMTISQQEFGRTGLPDLSSMTEEEQIAYAMQMSLQGAEFGQAESADIDASSAMDTSEPAKEEDDYDVMQDPEFLQSVLENLPGVDPNNEAIRNAMGSLASQATKDGKKDKKEEDKK
notes: Transfected expression construct; also called GFP-tagged RPN10; not shown: GFP tag
B4: GFP-tagged regulatory proteasome non-ATPase subunit 13 (RPN13) (other, UniProt Q16186 1-407, looked up)
chain: MTTSGALFPSLVPGSRGASNKYLVEFRAGKMSLKGTTVTPDKRKGLVYIQQTDDSLIHFCWKDRTSGNVEDDLIIFPDDCEFKRVPQCPSGRVYVLKFKAGSKRLFFWMQEPKTDQDEEHCRKVNEYLNNPPMPGALGASGSSGHELSALGGEGGLQSLLGNMSHSQLMQLIGPAGLGGLGGLGALTGPGLASLLGSSGPPGSSSSSSSRSQSAAVTPSSTTSSTRATPAPSAPAAASATSPSPAPSSGNGASTAASPTQPIQLSDLQSILATMNVPAGPAGGQQVDLASVLTPEIMAPILANADVQERLLPYLPSGESLPQTADEIQNTLTSPQFQQALGMFSAALASGQLGPLMCQFGLPAEAVEAANKGDVEAFAKAMQNNAKPEQKEGDTKDKKDEEEDMSLD
notes: as for B1

Experiments:
[1] = test system: NICD; test: Immunoblot of NICD in BBS4-overexpressing cells treated with proteasome inhibitors; format: cell-based; conditions: MG132 30 μM 5 hours, lactacystin 20 μM 5 hours
Method: (§3) Transfected cells and mouse tissues were lysed in modified RIPA buffer [150 mM sodium chloride, 50 mM Tris-HCl, pH7.4, 1% nonidet P-40, 0.1% sodium deoxycholate, 1 mM EDTA] with 1× proteasome inhibitor (Roche) and centrifuged at 4° C. for 15 minutes. […] Total protein in each sample was separated by SDS-PAGE on 4% to 15% Mini-PROTEAN TGX Precast Gel (Bio-Rad) with a Spectra Multicolor Broad Range Protein Ladder (Fermentas) and transferred to an Immun-Blot PVDF Membrane (Bio-Rad). […] Densitometric analysis was performed with Image Lab (Bio-Rad), Quantity One (Bio-Rad), or ImageJ 1.44p (NIH) software.
(§4) Drug treatment was carried out at a final concentration of 10 μM SFN (Sigma-Aldrich) for 6 to 24 hours, 30 μm N-carbobenzoxyl- ? -leucinyl- ? -leucinyl- ? -norleucinal (MG132; Calbiochem) for 5 hours, 20 μM lactacystin (EMD Bioscience) for 5 hours, and 50 ng/ml TNF-α (Sigma-Aldrich) for 12 hours.

[2] = test system: JAG1; test: Immunoblot of GFP-JAG1 in BBS4-overexpressing cells treated with proteasome inhibitor; format: cell-based; conditions: proteasome inhibitor 5 hours
Method: as §3, §4

[3] = test system: bbs4, bbs1 and ofd1 morphant zebrafish embryos; test: Convergent extension (CE) and somite defects in morphant zebrafish embryos, coinjection; format: in vivo; conditions: coinjection with bbs4 morpholino
Method: (§1) Morpholinos against bbs1 ([NT] ID NO: 13), bbs4 ([NT] ID NO: 14), and ofd1 ([NT] ID NO: 15) were purchased from Gene Tools, LLC. Human RPN10, RPN13, and RPT6 mRNA were in vitro transcribed with a mMESSAGE mMACHINE SP6 Kit (Ambion). SFN was dissolved in DMSO (Sigma-Aldrich) at a stock concentration of 1 M and further diluted in water to 10 mM. The morpholino and mRNA or SFN were mixed, and a volume of 0.5 nl was microinjected.

[4] = test system: her4 expression (Notch target) in bbs4 morphant zebrafish embryos; test: Whole-mount RNA in situ hybridization of her4 in morphant zebrafish; format: in vivo; conditions: bbs4 morphants, coinjection, 4.5 dpf
Method: as §1, with “microinjected. Zebrafish embryos were fixed overnight in 4% PFA at 4° C. Residual pigment was removed by bleaching with 3% H2O2/0.5% KOH.” for “microinjected.”

[5] = molecular target: B2; test: co-immunoprecipitation, 1% Triton X-100
Method: (§2) First, an unbiased mass spectrometry screen was conducted to identify putative OFD1-interacting proteins. This experiment uncovered a spectrum of proteasomal subunits including regulatory proteasome ATPase subunit 6 (RPT6), a finding confirmed by semiendogenous coimmunoprecipitation (FIG. 4A). […] To test the physiological relevance of a BBS-proteasome interactome, it was determined that BBS1 and RPN10 interacted at endogenous levels in protein lysates isolated from C57BL/6 mouse testes (FIG. 4A). To probe the relevance of these interactions, the question was asked whether loss of OFD1 or BBS4 alters the composition of the proteasome with respect to its subunits. Using a stable cell line expressing tagged regulatory proteasome non-ATPase subunit 11 (RPN11) (37), OFD1 was suppressed, 26S proteasome complexes were purified, and a robust reduction was observed (60%±8%) of 26S-bound regulatory proteasome ATPase subunit 2 (RPT2) in OFD1-depleted cells in comparison with that in control, while total RPT2 protein abundance was not affected by OFD1 depletion (FIG. 4B).

[6] = molecular target: T1, BBS10; test: co-immunoprecipitation, 1% Triton X-100
Method: as §2

[7] = molecular target: B4; test: co-immunoprecipitation, 1% Triton X-100
Method: as §2

[8] = molecular target: T2, GFP-tagged regulatory proteasome ATPase subunit 6 (RPT6) (UniProt P62195 1-406); test: co-immunoprecipitation, 1% Triton X-100
T2 construct: Transfected construct; not shown: GFP tag
Method: as §2

[9] = molecular target: B3; test: co-immunoprecipitation, 1% Triton X-100
Method: as §2

T2 sequence (P62195 whole entry): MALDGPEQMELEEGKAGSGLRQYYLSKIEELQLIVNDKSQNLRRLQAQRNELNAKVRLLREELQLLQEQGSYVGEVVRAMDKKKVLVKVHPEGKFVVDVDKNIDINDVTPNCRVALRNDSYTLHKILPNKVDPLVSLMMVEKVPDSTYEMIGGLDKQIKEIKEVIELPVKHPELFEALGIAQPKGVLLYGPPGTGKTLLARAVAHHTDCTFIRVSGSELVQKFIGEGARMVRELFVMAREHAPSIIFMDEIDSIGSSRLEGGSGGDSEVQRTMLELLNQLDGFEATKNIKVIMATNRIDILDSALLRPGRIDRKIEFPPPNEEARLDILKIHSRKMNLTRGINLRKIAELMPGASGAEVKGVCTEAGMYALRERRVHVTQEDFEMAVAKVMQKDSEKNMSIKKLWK

CC(C)C[C@@H](C=O)NC(=O)[C@H](CC(C)C)NC(=O)[C@H](CC(C)C)NC(=O)OCc1ccccc1 [MG132] (Cbz-Leu-Leu-Leu-aldehyde)
NICD protein levels, of basal levels [1]: 93%
JAG1 levels, of basal levels [2]: 99%±38%

CC(=O)N[C@@H](CSC(=O)[C@]1([C@@H](O)C(C)C)NC(=O)[C@H](C)[C@@H]1O)C(=O)O [lactacystin]
NICD protein levels, of basal levels [1]: 138%

CC1(O)CCOC(=O)C1 (racemic) [MVA, (±)-β-hydroxy-β-methyl-δ-valerolactone]
bbs4 morphant zebrafish with CE defects ([3]; 9±1 ss, 47.8% without MVA): 11.4%
bbs4 morphants with CE and somitic defects ([3]; blind scoring at 9±1 ss): rescues
ectopic expression of her4 in neural structures [4]: reduced

B1
binding result [5]: no binding
binding result [6]: no binding

B2
binding result [7]: no binding
binding result [8]: no binding
binding result [9]: no binding

B3
binding result [6]: no binding

B4
binding result [6]: no binding
